In publication PMC8079763 (2021) one finds Kd and koff data, which are given here for seven molecules.

Sequences and labels used below:
B1: recombinant PyEBL R2, the N-terminal Cys-rich Duffy binding-like region (E113-G437) (domain or fragment)
chain: EKNGNVNYKDYFDKYQVNECKEKNKNEIHAWICDNEKQNCIPSRRINLCTKRLEIIPDTIKIPDNKTKELLMDYFKQFIYKDAAREGELLLNKYDDKNNNEYCNDMINSFGDYKNIVEGTGLKNVANESLLELKIQNIFGTDDNAKRNRKTWWKNHEHIVWKAMVLGKNFNETSNYKNVCTNYKLEDYHSQIERWTREWIQEFSVQYFKEANKINNKCTKKSNISTESICINNECKNACNTYEAWISVNKSKWDTLLQRFSQFNKSYFSEETCRDKAYNSLMIEFKEAYEANFENVINLDDDHYTGLCVCSSVKPSNTPINNNLG
B2: recombinant PyEBL R1-2 (amino acid V28-G437) (domain or fragment)
chain: VNLLKRTYESFQSFPLKNNSGNRILYELKESLYNIENGETWGDLVSKDNEIFGGKDHILSENYTSDSVNSKKESNFLETGKISLVEKNGNVNYKDYFDKYQVNECKEKNKNEIHAWICDNEKQNCIPSRRINLCTKRLEIIPDTIKIPDNKTKELLMDYFKQFIYKDAAREGELLLNKYDDKNNNEYCNDMINSFGDYKNIVEGTGLKNVANESLLELKIQNIFGTDDNAKRNRKTWWKNHEHIVWKAMVLGKNFNETSNYKNVCTNYKLEDYHSQIERWTREWIQEFSVQYFKEANKINNKCTKKSNISTESICINNECKNACNTYEAWISVNKSKWDTLLQRFSQFNKSYFSEETCRDKAYNSLMIEFKEAYEANFENVINLDDDHYTGLCVCSSVKPSNTPINNNLG
B3: recombinant PyEBL ectodomain spanning region 1 to region 6 (PyEBL R1-6; amino acids V28-N788) (domain or fragment)
chain: VNLLKRTYESFQSFPLKNNSGNRILYELKESLYNIENGETWGDLVSKDNEIFGGKDHILSENYTSDSVNSKKESNFLETGKISLVEKNGNVNYKDYFDKYQVNECKEKNKNEIHAWICDNEKQNCIPSRRINLCTKRLEIIPDTIKIPDNKTKELLMDYFKQFIYKDAAREGELLLNKYDDKNNNEYCNDMINSFGDYKNIVEGTGLKNVANESLLELKIQNIFGTDDNAKRNRKTWWKNHEHIVWKAMVLGKNFNETSNYKNVCTNYKLEDYHSQIERWTREWIQEFSVQYFKEANKINNKCTKKSNISTESICINNECKNACNTYEAWISVNKSKWDTLLQRFSQFNKSYFSEETCRDKAYNSLMIEFKEAYEANFENVINLDDDHYTGLCVCSSVKPSNTPINNNLGYKQTLETQNPTDASQNTLFPPFSTGTETDLFKEDDDDNGGFDLLSYNNADAQNLRNSTPTDQVGVNNEQNKLNQNAESNNKYELQIMGNHANSDNTYHNIIIPSQENNIYTSTPESVTINPTSTSNTNENQTLTPNSTLTPTLTSNSNPTQIPTQPQPQFPIPPQPQFPIPPETQFPIPPETQIPTPTLNPNATNKGVKEHHFNTNGIENGNTMKDQMNIPPIKFNIDPKHDNTINGGFSRINNDNDSENANKLGIDEYEHRDIKKSRENIIMLANENVCNGNPGLKYCESINNKYFHGTCSKSQTQNLCCSISNYCIKFFNINSKKYYDCMNEEFMAPDYNCFQKESYSN

The target in the first experiment is GST tagged ecto-basigin (recombinant mouse basigin) (mouse (C57BL/6J)) (UniProt P18572). Put plainly: SPR; Biacore X100; recombinant mouse basigin (GST tagged) immobilised on CM5 chip by amine coupling; PyEBL regions as analytes; HBS-EP+ (10 mM HEPES pH 7.4, 150 mM NaCl, 3 mM EDTA, 0.05% P20); single-cycle kinetics, 1:1 binding model.
Take “recombinant PyEBL R2, the N-terminal Cys-rich Duffy binding-like region (E113-G437) (domain or fragment)”: the Kd amounted to 34 nM. Same read-out and setting: next, “recombinant PyEBL R1-2 (amino acid V28-G437) (domain or fragment)”: 16 nM. On the same count and under the same terms, next, “recombinant PyEBL ectodomain spanning region 1 to region 6 (PyEBL R1-6; amino acids V28-N788) (domain or fragment)”: 33 nM; “recombinant PyEBL C351Y (domain or fragment)”: 26 nM.

The target of a further experiment is T1, GST tagged ecto-basigin (recombinant mouse basigin) (mouse (C57BL/6J), UniProt P18572 22-325).
T1 chain: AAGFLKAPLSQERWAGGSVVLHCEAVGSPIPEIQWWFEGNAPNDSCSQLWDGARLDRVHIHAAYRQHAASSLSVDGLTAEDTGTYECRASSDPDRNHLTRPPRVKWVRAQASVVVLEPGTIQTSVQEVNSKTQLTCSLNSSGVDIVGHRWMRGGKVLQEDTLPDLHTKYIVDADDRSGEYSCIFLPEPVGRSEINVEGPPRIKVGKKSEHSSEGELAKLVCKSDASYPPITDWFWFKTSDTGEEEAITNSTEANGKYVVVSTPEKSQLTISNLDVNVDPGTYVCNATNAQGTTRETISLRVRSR
Put plainly: SPR.
In the case of B1, the koff was found to be 0.00104 s⁻¹.

As for B2, the koff was 0.00713 s⁻¹. On the same count and under the same terms, next, B3: 0.00106 s⁻¹.
